Experimental data from patent US20130316376.

System: His6ZQGRep4CT

## Protease 3C
  Protease 3C cleavage of a Z-Rep4CT fiber (SDS-PAGE of the cleavage supernatant): the Protease 3C cleavage site is available for cleavage in Z-Rep4CT fibers and therefore, the HZ part can be removed
